Measurements taken from paper PMC7793522.

Target: synthetic peptide on H-2Kb (mouse)
Assay: data from [108]; method not given; soluble, other

Substance: YAe62
- Kd: 15 µM
